Reference: publication PMC10711660, “An extended Tudor domain within Vreteno interconnects Gtsf1L and Ago3 for piRNA biogenesis in Bombyx mori” (The EMBO Journal, 2023)

B1: GST‐BmVreteno‐L (natural protein, Bombyx mori)
chain: MSNHSRPQRRREWDPMRDDFNEHTYDVQYADDNAGEQVQLDHTKLYIINIPRGLSEDGIRAAFSKHGKVLSARLSKNPNKRFAIVQFETASEAKLAMMKMNGSEPLNLKISIAHKTIRKTQHDNKDRNYSTSRNGHCSRDEASSISSKGWNMRNLDDVMNNDEIDEIDDMIHEDHDDNLDLELDMLTLKQLKIKEEQLMCKRRLLLRHAEKRQVAPHSSAGRSVLPDGRIVVRNNANETDSAEVEPSFAGAGSESLKTPGLERNASRQCVKCGAPADWYCSRCAITPYCSQTCQTRDWTERHKSVCHYLAPLKTAGGFEAEATSSKSVSNSTPMRSSHSPPTKQQRGEADETDNKAKNIQEPRQNYHRPSNSGPNKNIPGKNQDPRRPATSREAIEEETEERGARNPKPAEATKDKHHPMNPVTFQRRQLKSNPVVDAQPAPREQQQPAATRAPEASPTEQRESTRRTLVPDRCLIDSLSEGDVVLVSVELKASECCTKQGGYVCLSMHEKYESDYQKLCEDYVLDCEADSDEYKIITGDTFSYLSPEDGGWYRARALNTTMAALLDGSKVVYLRMNDKVKKLPAKYSGIPEFCCVLNADVEVGLNLKCSLLSKTPNGFKVTLENVETEANVGEGEITRWIPEVDYPPPVKNVPVQRSVEIPEVPRPEIKNKSRVILVDATDVQRVFVRPADTRSQKAFDNILQDVLLYGTTAEPLKEPPSKGQTVVSKYTDNLHYRALCKRTSVNKNKYLLEYIEYGNIEITQLNRLYPCPEHLSVTSLASLTSHVQLDTTVGELTPRALEYIETIKEEEMILTLSSGGDTAQSGAALVNLTLVKNNDNVNKRIEELCTPEWKKLELKGVDVIETERLMYGTALDYIELPAAPFDLQVLDEVGLDSGNISGCPTNSDYVRYVMTKLPARMREYCESEFGRQPYLPAAEELCIAQLPPSSEWHRAVVLEQILGPGGGTARVLFVDHGNVAEVPVSSLRKMLAEFVTDLPAVACQIVIEDFPKQATAEMLAKARRFMSGPDKARAAQLPVRGCDKQDVGIYAIRVPELLEAMTE
notes: BmVreteno Long isoform, Bombyx mori; pGEX-6p vector, 3C site between GST and BmVreteno; the purified protein was associated with nucleic acids; also called GST‐3C‐BmVreteno; full‐length BmVreteno‐L; source: E. coli BL21 DE3 codon+, purified (GSTrap, gel filtration); not shown: GST, N-terminal, kept

How the values were obtained:
[1] = molecular target: the molecule itself; assay: SEC; gel filtration of purified GST-BmVreteno-L and -S (Superdex 75 and 200 16/60 pg, 25 mM Na-Hepes, 300 mM NaCl, 10% glycerol, pH 7.4); protein associated with nucleic acids
GST‐BmVreteno‐L = molecular target: B1; assay: pull-down; GSH pull-down: 5 μM GST-BmVreteno (or fragment, variant) on Glutathione Sepharose 4B with 10 μM His-BmGtsf1L, 2 h 4°C, PBS with 0.1% Triton-X100; SDS-PAGE, Coomassie (Fig 5G also anti-His Western blot); conditions: both partners purified

binding result (GST‐BmVreteno‐L) | Binder | binding result [1]
 | B1 | binds
binds | His‐BmGtsf1L (natural protein, Bombyx mori, BmGtsf1L, Bombyx mori; pET28a, thrombin site after the His6 tag; also called His6‐thrombin‐BmGtsf1L; recombinant BmGtsf1L; source: E. coli BL21 DE3 codon+, purified (HisTrap, gel filtration); not shown: His6, N-terminal, kept) MDDPFVSCPYNPIHRVPRSRLQRHIVKCEWINPTMIACPYNATHRYTQEDMKFHVLNCPSKTSIFPIEKPPKTVASITTPKIILQKEYLPETDPNHEIWDD | 
